Assay results taken from paper PMC7954662 (Science (New York, N.Y.), 2020).

Biological target: Human GCGR (Q27-F477) with N-terminal FLAG and C-terminal octahistidine tag (human, UniProt P47871 27-477)
Experiment: cryo-EM structure

Human GCGR (Q27-F477) with N-terminal FLAG and C-terminal octahistidine tag, sequence (P47871 27-477): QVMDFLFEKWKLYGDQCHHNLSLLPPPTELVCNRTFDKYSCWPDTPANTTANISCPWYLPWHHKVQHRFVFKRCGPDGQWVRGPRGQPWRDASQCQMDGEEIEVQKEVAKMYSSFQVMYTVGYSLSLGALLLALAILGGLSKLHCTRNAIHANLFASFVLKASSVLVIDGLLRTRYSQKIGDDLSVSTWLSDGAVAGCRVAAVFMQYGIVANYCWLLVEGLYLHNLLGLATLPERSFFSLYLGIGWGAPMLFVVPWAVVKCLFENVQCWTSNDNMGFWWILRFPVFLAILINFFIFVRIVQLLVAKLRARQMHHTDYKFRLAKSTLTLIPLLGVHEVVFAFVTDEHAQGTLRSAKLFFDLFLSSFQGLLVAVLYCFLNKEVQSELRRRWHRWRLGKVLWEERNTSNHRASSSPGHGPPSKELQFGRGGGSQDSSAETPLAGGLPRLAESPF

binding result: binds
B1: Gαs (human, short splice variant), subunit of the Gs heterotrimer (natural protein)
chain: MGCLGNSKTEDQRNEEKAQREANKKIEKQLQKDKQVYRATHRLLLLGAGESGKSTIVKQMRILHVNGFNGDSEKATKVQDIKNNLKEAIETIVAAMSNLVPPVELANPENQFRVDYILSVMNVPDFDFPPEFYEHAKALWEDEGVRACYERSNEYQLIDCAQYFLDKIDVIKQADYVPSDQDLLRCRVLTSGIFETKFQVDKVNFHMFDVGGQRDERRKWIQCFNDVTAIIFVVASSSYNMVIREDNQTNRLQEALNLFKSIWNNRWLRTISVILFLNKQDLLAEKVLAGKSKIEDYFPEFARYTTPEDATPEPGEDPRVTRAKYFIRDEFLRISTASGDGRHYCYPHFTCAVDTENIRRVFNDCRDIIQRMHLRQYELL
